The record followed here is patent US12723078 (University of Texas, dated 2026).

B1: mAb of B cell clone 198 (supernatant) (antibody, V domains shown)
VH: QSLEESGGGLVKPEGSLTLTCTASGFDLSNNYYICWVRQAPGKGLELIACVDSDLTDSADYASWAKGRFTISKTSSTTVTLQMTSLTAADTATYFCAGSGSGYYYYYGMDLWGPGTLVTISS
VL: ELDMTQTPASVSEPVGGTVTIKCQASQSIGSYLAWYQQKPGQPPKLLAFYASTLKSGVPPRFKGSGSGTEFTLTISDLECADAATYYCQSNRLSSSDVNAFGGGTEVEIK
notes: rabbit
B2: mAb of B cell clone 196 (supernatant) (antibody, V domains shown)
VH: QEQLVESGGGLVQPEGSLTLTCTDSGFSFTKNYYMCWVRQAPGKGLEWIGCIYAGSTNTFYASWAKGRFTISKASSTTVDLKMTSLTVADTATYFCARDFVSYLNLWGPGTLVTVSS
VL: ELDMTQTPSSTSAAVGGTVTIKCQASQSVYNNNQLSWFQQKPGQPPKRLIYGASTLESGVPSRFSGSGSGTQFTLTISDLECDDAATYYCQGAVSSDYYPFGGGTEVEIK
notes: rabbit
B3: mAb of B cell clone 4 (supernatant) (antibody, V domains shown)
VH: RAVGKESGGGLVKPGASLTLTCKASGFDFSGIYWVCWVRQAPGKGLEWIACFDAERTGNTYYATWAKGRFTISRTSSTTVTLQMTSLTAADTATYFCARSYYMWGPGTLVTVSS
VL: ELVLTQTPSPVSAVVGGSVTINCQSSQSLYNANDLSWYQQKPGQPPKQLIYWASTLASGVPSRFKGSGSGTQFTLSISDVQCDDAATYYCLGEFSCSSFDCHVFGGGTEVVVK
notes: rabbit; also called B1-#4
B4: mAb of B cell clone 5 (supernatant) (antibody, V domains shown)
VH: EQSLEESGGDLVKPEGSLTLTCTASELSFSSAYYMCWVRQAPGKGLEWIGCIYSGDGDTYYANWAKGRFTISKTSSTTVTLQMTSLTDADTATYFCARALDSHYSSFDLWGPGTLVTISS
VL: ELDMTQTPSSVSAAVGDTVTIKCQASQSIYRYLAWYQQKPGQRPSLLIYYGSDLASGVPSRFSGSGSGTEFTLTISDLECADAASYYCQTTYDDYHNGWAFGGGTNVEIN
notes: rabbit; also called B1-#5
B5: mAb of B cell clone 202 (supernatant) (antibody, V domains shown)
VH: SQSLEESGGGLVKPGASLTLTCKGSGFSFNGDYYMCWVRQTPGKGLEWIGCIYAAGDDTYYATWAKGRFTISKTSSTTVTLQMTSLTAADTATYFCARDQADSYAFGLWGPGTLVTISS
VL: ELVLTQTASPVSGAVGGTVTIKCQASQNIYSNLAWYQQKPGQPPKLLIYSASKLASGVPSRFKGSGSGTEYTLTISGVQCEDAATYYCQSYYYTASADTTFGGGTEVEIK
notes: rabbit
B6: mAb of B cell clone 178 (supernatant) (antibody, V domains shown)
VH: QKQLVESGGGLVQPEGSLALTCTASGFSFSSSYWICWVRQAPGKGLEWIACIYAGSSGSTYYASWVNGRFTVFKTSSTTVTLQMTSLTAADTATYFCARGGTSYRLDLWGPGTLVTVSS
VL: ELVLTQTPSSKSVAVGDTVTINCQASDNVYSNNYTSWFQQKPGQPPKQLLYYAAYRASGVPSRFKGSGSGTEFTLSISDVVCDDAATYYCSGHKDYSDDGSTFGGGTEVEIK
notes: rabbit
B7: mAb of B cell clone 185 (supernatant) (antibody, V domains shown)
VH: SQQLKESGGGLVKPGGTLTLTCKASGIDFNNDYNICWVRQPPGKGLEWIGCIYTGSDSTDYASWVNGRFTISESTSLNTVDLKVTSLTDADTATYFCARDLVTGYATYGYGFILWGPGTLVTVSS
VL: ELVLTQTPSSKSVAVGDTVTINCQASDNVYSNNYTSWFQQKPGQPPKQLLYYAAYRASGVPSRFKGSGSGTEFTLSISDVVCDDAATYYCSGHKDYSDDGSTFGGGTEVEIK
notes: rabbit
B8: mAb of B cell clone 209 (supernatant) (antibody, V domains shown)
VH: SQSVEESGGDLVKPGGTLTLTCTASRIDLNNYYYISWVRQAPGKGLEWIGVVATDSSVTWYASWAKGQFTISKTSSTTVTLQMTSLTAADTATYFCARGSGAATNGVWWVMGDGMDLWGPGTLVTVSS
VL: ELVMTQTPASVSEPVGGTVTIKCQASQSISSYLSWYQQKPGQPPKRLIYKASTLASGVPSRFKGSGSGTEFTLTISGVQCADAATYYCQNNYHSGSSNGGGFAFGGGTEVEIK
notes: rabbit
B9: mAb of B cell clone 203 (supernatant) (antibody, V domains shown)
VH: QSLKESEGDLVKPGASLTLTCTASGFSFSSSYWICWVRQAPGKGLEWIACIYAGSSGSTYYASWAKGRFTISKTSSTTVTLEMTSLTDADTATYFCARGFSMFKLWGPGTLVTISS
VL: ELVLTQTPSSVEAAVGGTVTIKCQASQSIGSYLAWYQQKPGQPPKLLIYKASTLSSGVSSRYKGSGSGTEFTLTISDLECDDAATYYCQYTSYSSGGAFGGGTEVVVK
notes: rabbit
B10: mAb of B cell clone 210 (supernatant) (antibody, V domains shown)
VH: QSVEESEGRLVTPGGSLTLTCTVSGIDLSSYAMGWVRQAPGKGLEWIGVIGKSGTTYYANWAKGRFTISKTSTTVDLQIASPTTEDTATYFCARAGASRSIYYDLWGQGTLVTISS
VL: ELVLTQTPSSKSVAVGDTVTINCQASESVYGNNRCSWYQQKPGQPPKLLIYQASTLASGVPSRFSGSGSGTQFTLTISDVVCDDAATYYCAGHKGTTNDGNDFGGGTEVEIK
notes: rabbit; also called B1-#210
B11: mAb of B cell clone 7 (supernatant) (antibody, V domains shown)
VH: EQSLEESGGGLVKPGASLTVTCAVSGFSLNSYAITWVRQAPGKGLEYIGYIDTGASITDYASWAKGRFTISKTSSTTVTLEMTSLTDADTATYFCARGFSMFKLWGPGTLVTISS
VL: ELDLTQTPSSVSAAVGGTVTISCQASQSVYGNNRLAWYHQKPGQPPKRLIYLASTLDSGVPSRFKGAGSGTQFTLTISDLECDDAATYYCAGGYAGNFNAFGGGTEVEIK
notes: rabbit; also called B1-#7
B12: mAb of B cell clone 190 (supernatant) (antibody, V domains shown)
VH: QEQLKESGGDLVKPEGSLTLTCTASGFSFSSDYWVCWVRQAPGKGPEWIGCIYTGDDDTYYASWAKGRFTISKTSSTTVTLEVTSLTAADTATYFCARGLTIGTAELYFWGPGTVVTVSS
VL: ELVLTQTPSPVSAAVGGTVTINCQASQSISNELSWYQQKPGQPPKLLIYLASTLDSGVPSRFKGSGSGTQFTLTISDLECADAATYYCQSHYYGGSSDYGWAFGGGTEVVVK
notes: rabbit; also called B1-#190
B13: mAb of B cell clone 204 (supernatant) (antibody, V domains shown)
VH: QSVKESGGGLVKPGGTLTLTCTASGFSFSSSYCMCWVRQAPGKGLELIACIYTDSSGATYYASWAKGRFTISKSSSTTITLQMTSLTAADTATYFCARGWDYEDPGYTDTTYFSLWGPGTLVTVSS
VL: ELDMTQTPSSVEAAVGGTVTIKCQASQTIYTNLAWYQQKPGQPPNLLIYAASTLASGVSSRFKGSGSGTEFTLTISDLECADAATYYCQSYYGSSTTGNGFGGGTEVEIN
notes: rabbit
B14: mAb of B cell clone 227 (supernatant) (antibody, V domains shown)
VH: QSVKESGGGLVKPGGTLTLTCTASGFSFSSSYCMCWVRQAPGKGLELIACIYTDSSGATYYASWAKGRFTISKSSSTTITLQMTSLTAADTATYFCARGWDYEDPGYTDTTYFSLWGPGTLVTVSS
VL: ELDLTQTASPVSGAVGGTVTIKCQASQSIASDLAWYQQKPGQPPNLLIYAASTLASGVSSRFKGSGSGTEFTLTISDLECADAATYYCQSYYGSSTTGNGFGGGTEVVVK
notes: rabbit
B15: mAb of B cell clone 176 (supernatant) (antibody, V domains shown)
VH: QSLEESEGGLVKPGGTLTLTCTASGFSFSSSYCMCWVRQAPGKGLELIACIYTDSSGATYYASWAKGRFTISKSSSTTITLQMTSLTAADTATYFCARGWDYEDPGYTDTTYFSLWGPGTLVTVSS
VL: ELDLTQTPSSVEAAVGGTVTIKCQASQTIYTNLAWYQQKPGQPPNLLIYAASTLASGVSSRFKGSGSGTEFTLTISDLECADAATYYCQSYYGSSTTGNGFGGGTEVEIK
notes: rabbit

T1 sequence (Q8NHL6 24-461 limits assumed): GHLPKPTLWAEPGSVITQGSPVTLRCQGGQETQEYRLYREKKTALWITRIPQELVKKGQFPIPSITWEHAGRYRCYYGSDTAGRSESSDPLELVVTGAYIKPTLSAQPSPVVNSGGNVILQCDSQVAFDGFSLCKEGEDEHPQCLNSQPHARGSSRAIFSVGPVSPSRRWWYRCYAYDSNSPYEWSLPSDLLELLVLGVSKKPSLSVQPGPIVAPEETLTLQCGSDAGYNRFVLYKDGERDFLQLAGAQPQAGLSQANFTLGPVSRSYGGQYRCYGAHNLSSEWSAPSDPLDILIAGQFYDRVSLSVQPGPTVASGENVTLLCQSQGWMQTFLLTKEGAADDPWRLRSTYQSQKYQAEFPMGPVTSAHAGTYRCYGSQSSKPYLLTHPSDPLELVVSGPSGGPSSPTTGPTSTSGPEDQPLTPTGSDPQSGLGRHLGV

The experiment addresses T1, human LILRB1 recombinant protein (human, UniProt Q8NHL6 24-461).
T1 construct: The ELISA method says only 'LILRB1 recombinant proteins' coated on plates; also called leukocyte immunoglobulin-like receptor subfamily B member 1
The experiment is described as follows: ELISA, B cell supernatant. On the technique in general: An ELISA detects its analyte on a solid surface through an enzyme-linked reagent.
For B1, the OD450 turned out to be 2.28 OD450. The value for B2 was 2.27 OD450; that for B3 was 2.47 OD450; that for B4 was 2.27 OD450. With B5, the OD450 is 1.95 OD450. Then B6, with 1.81 OD450; and B7, with 1.67 OD450. Regarding B8, the OD450 worked out at 2.18 OD450.

For B9, the OD450 was 1.75 OD450. The value for B10 was 1.75 OD450.

On to B11, for which the OD450 is 2.4 OD450. On to B12, for which the OD450 was 1.9 OD450. Then B13, with 2.03 OD450.

As for B14, the OD450 was determined as 2.08 OD450. Then B15, with 2.06 OD450.
